Measurements published in paper PMC3814058.

Key:
[1] = molecular target: GFP–STIM2K dimer (oxidized, disulphide-linked through Cys725) (human) (UniProt Q9P246); assay: pull-down; competition: GFP–STIM2K dimer bound to Ca^2+/CaM beads, eluted with 75 μM purified CaM or CaM mutant in 1 mM CaCl2; percent of bound GFP–STIM2K eluted
[2] = molecular target: GFP–Zipper–STIM1K (GFP, tetramerization domain of the Gcn4 leucine zipper variant pLI, STIM1 K-rich domain) (yeast | human) (UniProt Q13586); assay: SEC; Superdex 200 10/300 GL in HK buffer (25 mM HEPES/KOH pH 7.5, 150 mM KCl, 1 mM DTT), 0.5 ml/min; elution compared with marker proteins
[3] = molecular target: GFP–STIM2K dimer (oxidized, disulphide-linked through Cys725) (human) (UniProt Q9P246)
[4] = molecular target: GFP–STIM2K dimer (oxidized, disulphide-linked through Cys725) (human) (UniProt Q9P246); remark: listed apart in the source
[5] = molecular target: GFP–STIM2K dimer (oxidized, disulphide-linked through Cys725) (human) (UniProt Q9P246); remark: listed apart in the source

GFP–STIM2K dimer (oxidized, disulphide-linked through Cys725) (human), sequence (Q9P246 720-746): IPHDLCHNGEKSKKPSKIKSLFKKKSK

Substance	percent of GFP–STIM2K eluted from the Ca^2+/CaM beads [1] [%]	stoichiometry N [2]	reduction of binding of 2 μM GFP–STIM2K dimer to PC liposomes with 5 mol% PI(4,5)P2 after pre-incubation with 5 μM CaM in 100 μM CaCl2 (5-fold against no CaCl2, 3.8-fold against 100 μM CaCl2) [3] [%]	reduction of binding of 2 μM GFP–STIM2K dimer to PM-like liposomes with 2 mol% PI(4,5)P2 after pre-incubation with 5 μM CaM in 100 μM CaCl2, against 100 μM CaCl2 alone [4] [%]	reduction of binding of 2 μM GFP–STIM2K dimer to PM-like liposomes with 2 mol% PI(4,5)P2 after pre-incubation with 5 μM CaM in 50, 100 or 200 μM CaCl2 (2.1-, 2.6- and 3.4-fold against CaCl2 alone) [5] [%]
CaM1–4m (human CaM1–4 mutant, all four EF-hand domains mutated) (from UniProt P0DP23 1-149) (natural protein)	7				
GFP–Zipper–STIM1K (GFP, tetramerization domain of the Gcn4 leucine zipper variant pLI, STIM1 K-rich domain) (from UniProt Q13586-1 662-685)		4			
His(6)-tagged human CaM (calmodulin) (from UniProt P0DP23 1-149) (natural protein)	45		74	61	71
